Results on three molecules are retold here after publication PMC7919418.

Read-outs that look alike come from different tables or passages of the source.

The target of data set [1] is T1, SFiNX[wild type] (Panx-Nxf2-Nxt1-Ctp) (Drosophila melanogaster, UniProt Q9W2H9;Q9VV73;Q9V3H8;Q24117 263-541;541-841;1-133;1-89). As to the kind of experiment: EMSA. For orientation: In EMSA bound probe runs differently from free probe, usually more slowly.
In data set [2] the target is T1, SFiNX[wild type] (Panx-Nxf2-Nxt1-Ctp). As to the kind of experiment: EMSA. This is another data set of the same source.

T1 sequence (Q9W2H9 263-541, chain 1 of 3): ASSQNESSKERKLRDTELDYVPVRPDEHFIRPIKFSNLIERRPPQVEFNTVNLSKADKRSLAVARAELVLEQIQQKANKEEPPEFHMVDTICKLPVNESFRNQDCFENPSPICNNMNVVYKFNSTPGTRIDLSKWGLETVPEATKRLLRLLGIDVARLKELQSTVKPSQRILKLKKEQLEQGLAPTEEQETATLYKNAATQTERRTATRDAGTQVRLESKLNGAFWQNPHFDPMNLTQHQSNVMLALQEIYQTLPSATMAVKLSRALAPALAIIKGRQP
T1 sequence (Q9VV73 541-841, chain 2 of 3): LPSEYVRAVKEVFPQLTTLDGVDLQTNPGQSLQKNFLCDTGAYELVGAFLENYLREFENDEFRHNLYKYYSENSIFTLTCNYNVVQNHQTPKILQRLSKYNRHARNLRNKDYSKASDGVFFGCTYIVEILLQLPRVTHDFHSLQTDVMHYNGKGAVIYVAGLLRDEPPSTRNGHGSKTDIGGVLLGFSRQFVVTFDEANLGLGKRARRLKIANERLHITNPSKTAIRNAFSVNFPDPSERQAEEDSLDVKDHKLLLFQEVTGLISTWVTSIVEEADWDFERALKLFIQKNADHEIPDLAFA
T1 sequence (Q24117 whole entry, chain 4 of 3): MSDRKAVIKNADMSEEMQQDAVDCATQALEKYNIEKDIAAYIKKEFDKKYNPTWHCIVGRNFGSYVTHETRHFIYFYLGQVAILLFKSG

B1: 25-bp dsDNA (dsDNA)
DNA 1: ACGCTCAAGTCAGAGGTGGCGAAAC
DNA 2: GTTTCGCCACCTCTGACTTGAGCGT
Regarding B1, the binding result in data set [1] was “binds”. As for CUCAUCUUGGUCGUACGCGGAAUAGUUUAAACUGU (ssRNA) [35-nt ssRNA], in data set [2], the binding result is reported as “binds”.

B2: 35-bp dsRNA (dsRNA)
RNA 1: CUCAUCUUGGUCGUACGCGGAAUAGUUUAAACUGU
RNA 2: ACAGUUUAAACUAUUCCGCGUACGACCAAGAUGAG
Consider B2, for which the binding result in data set [1] is given as “binds”.
